By stoichiometry N is commonly meant the number of molecules, sites or subunits per partner or assembly.

The source of these data is paper PMC4434903.

One experiment has as its target full length TOP1-His (UniProt Q94AM1). In words: SEC; Superdex 200 gel filtration of cobalt-column purified His-tagged protein, no DTT; apparent MW by interpolation with conalbumin and aldolase; peak areas at A280. A general note: In gel filtration, larger molecules generally elute earlier.
Experiment [1] addresses T1, TOP2 fused to the N-terminal or the C-terminal half of Renilla luciferase, Q949P2.
T1 chain: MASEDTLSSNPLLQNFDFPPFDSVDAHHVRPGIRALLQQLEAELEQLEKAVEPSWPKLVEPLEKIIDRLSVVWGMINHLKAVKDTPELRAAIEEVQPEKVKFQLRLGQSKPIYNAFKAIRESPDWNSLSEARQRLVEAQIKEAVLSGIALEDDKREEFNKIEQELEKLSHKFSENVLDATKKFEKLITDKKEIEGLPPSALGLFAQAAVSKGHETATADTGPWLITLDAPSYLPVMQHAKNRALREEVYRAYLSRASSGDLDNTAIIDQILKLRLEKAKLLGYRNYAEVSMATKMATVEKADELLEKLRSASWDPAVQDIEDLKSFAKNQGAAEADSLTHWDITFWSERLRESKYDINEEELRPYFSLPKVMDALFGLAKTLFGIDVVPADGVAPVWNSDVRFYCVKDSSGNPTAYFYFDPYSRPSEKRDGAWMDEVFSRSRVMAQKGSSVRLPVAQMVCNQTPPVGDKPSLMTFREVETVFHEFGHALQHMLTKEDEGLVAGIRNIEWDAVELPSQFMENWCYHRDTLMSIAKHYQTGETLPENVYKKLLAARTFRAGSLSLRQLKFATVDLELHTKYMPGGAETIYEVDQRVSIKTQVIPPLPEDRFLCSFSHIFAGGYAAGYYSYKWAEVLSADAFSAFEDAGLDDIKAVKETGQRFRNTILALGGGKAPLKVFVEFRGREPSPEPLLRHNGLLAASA
Kind of experiment: split reporter (BiFC, NanoBiT); split Renilla luciferase complementation in Arabidopsis protoplasts co-transformed with NLuc and CLuc fusions; luminescence read 12-16 h after transformation; with or without 100 or 200 uM SA (3 h). To be noted: remark: other sources report otherwise.

Experiment [2] deals with T2, full length TOP2-His, Q949P2.
T2 chain: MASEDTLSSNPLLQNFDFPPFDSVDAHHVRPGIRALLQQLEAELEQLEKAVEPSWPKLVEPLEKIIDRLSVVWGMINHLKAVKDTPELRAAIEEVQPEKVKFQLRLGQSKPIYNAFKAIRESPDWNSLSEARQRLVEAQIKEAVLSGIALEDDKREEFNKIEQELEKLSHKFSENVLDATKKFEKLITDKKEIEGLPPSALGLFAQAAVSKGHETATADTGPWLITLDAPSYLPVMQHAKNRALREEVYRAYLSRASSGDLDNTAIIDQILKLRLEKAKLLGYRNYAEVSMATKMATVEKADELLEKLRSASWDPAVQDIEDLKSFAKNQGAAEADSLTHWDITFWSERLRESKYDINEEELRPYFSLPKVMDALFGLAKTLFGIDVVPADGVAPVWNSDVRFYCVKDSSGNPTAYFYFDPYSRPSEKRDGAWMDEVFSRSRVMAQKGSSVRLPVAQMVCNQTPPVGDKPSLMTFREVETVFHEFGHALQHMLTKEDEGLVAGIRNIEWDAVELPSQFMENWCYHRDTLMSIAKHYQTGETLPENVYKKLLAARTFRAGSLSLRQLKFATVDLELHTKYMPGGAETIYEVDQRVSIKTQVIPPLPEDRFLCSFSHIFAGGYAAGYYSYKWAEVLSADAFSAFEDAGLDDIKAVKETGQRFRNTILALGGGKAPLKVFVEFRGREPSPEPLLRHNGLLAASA
Kind of experiment: SEC; Superdex 200 gel filtration of cobalt-column purified His-tagged protein, no DTT; apparent MW by interpolation with conalbumin and aldolase; peak areas at A280. The following applies: remark: other sources report otherwise.

Consider “full length TOP1-His (from UniProt Q94AM1 83-791) (enzyme)”, for which the stoichiometry N in the experiment with full length TOP1-His worked out at 2.

B1: TOP2 fused to the N-terminal or the C-terminal half of Renilla luciferase, Q949P2 1-701 (enzyme)
chain: MASEDTLSSNPLLQNFDFPPFDSVDAHHVRPGIRALLQQLEAELEQLEKAVEPSWPKLVEPLEKIIDRLSVVWGMINHLKAVKDTPELRAAIEEVQPEKVKFQLRLGQSKPIYNAFKAIRESPDWNSLSEARQRLVEAQIKEAVLSGIALEDDKREEFNKIEQELEKLSHKFSENVLDATKKFEKLITDKKEIEGLPPSALGLFAQAAVSKGHETATADTGPWLITLDAPSYLPVMQHAKNRALREEVYRAYLSRASSGDLDNTAIIDQILKLRLEKAKLLGYRNYAEVSMATKMATVEKADELLEKLRSASWDPAVQDIEDLKSFAKNQGAAEADSLTHWDITFWSERLRESKYDINEEELRPYFSLPKVMDALFGLAKTLFGIDVVPADGVAPVWNSDVRFYCVKDSSGNPTAYFYFDPYSRPSEKRDGAWMDEVFSRSRVMAQKGSSVRLPVAQMVCNQTPPVGDKPSLMTFREVETVFHEFGHALQHMLTKEDEGLVAGIRNIEWDAVELPSQFMENWCYHRDTLMSIAKHYQTGETLPENVYKKLLAARTFRAGSLSLRQLKFATVDLELHTKYMPGGAETIYEVDQRVSIKTQVIPPLPEDRFLCSFSHIFAGGYAAGYYSYKWAEVLSADAFSAFEDAGLDDIKAVKETGQRFRNTILALGGGKAPLKVFVEFRGREPSPEPLLRHNGLLAASA
In experiment [1], B1 came in with a fold luminescence intensity over TOP1-TOP1 or TOP1-TOP2 of 3.4 fold.

B2: full length TOP2-His, Q949P2 1-701 (enzyme)
chain: MASEDTLSSNPLLQNFDFPPFDSVDAHHVRPGIRALLQQLEAELEQLEKAVEPSWPKLVEPLEKIIDRLSVVWGMINHLKAVKDTPELRAAIEEVQPEKVKFQLRLGQSKPIYNAFKAIRESPDWNSLSEARQRLVEAQIKEAVLSGIALEDDKREEFNKIEQELEKLSHKFSENVLDATKKFEKLITDKKEIEGLPPSALGLFAQAAVSKGHETATADTGPWLITLDAPSYLPVMQHAKNRALREEVYRAYLSRASSGDLDNTAIIDQILKLRLEKAKLLGYRNYAEVSMATKMATVEKADELLEKLRSASWDPAVQDIEDLKSFAKNQGAAEADSLTHWDITFWSERLRESKYDINEEELRPYFSLPKVMDALFGLAKTLFGIDVVPADGVAPVWNSDVRFYCVKDSSGNPTAYFYFDPYSRPSEKRDGAWMDEVFSRSRVMAQKGSSVRLPVAQMVCNQTPPVGDKPSLMTFREVETVFHEFGHALQHMLTKEDEGLVAGIRNIEWDAVELPSQFMENWCYHRDTLMSIAKHYQTGETLPENVYKKLLAARTFRAGSLSLRQLKFATVDLELHTKYMPGGAETIYEVDQRVSIKTQVIPPLPEDRFLCSFSHIFAGGYAAGYYSYKWAEVLSADAFSAFEDAGLDDIKAVKETGQRFRNTILALGGGKAPLKVFVEFRGREPSPEPLLRHNGLLAASA
With B2, the stoichiometry N in experiment [2] amounted to 2.
